These results are taken from patent US20210403546A1 (published 2021).

The assay addresses human recombinant TGF-b1 (human, UniProt P01137 279-390). Description: Biacore SPR. (Surface plasmon resonance follows binding to a sensor surface in real time, without labels.)

As a reminder, the Kd is the equilibrium constant for the complex coming apart.

Sequence of human recombinant TGF-b1 (P01137 279-390): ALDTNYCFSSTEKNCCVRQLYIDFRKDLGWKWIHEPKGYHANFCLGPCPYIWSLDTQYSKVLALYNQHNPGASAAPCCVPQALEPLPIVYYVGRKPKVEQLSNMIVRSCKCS

B1: 13A1_2F Fab (LCR13A1_VK_GLv1_05 + LCR13A1_VH_GLv1_03, stable Fab) (Fab, V domains shown)
VH: QVQLVQSGSVLAKPGASVKVSCKASGYTFTNYWMHWVRQAPGQGLEWIGTIYPGNSDTNYNQKFKDRAKLTAVTSTSTVYMELSSLRSEDTAVYYCTREDSRSLYYNGWDYFDYWGQGTLVTVSS
VL: DIVMTQSPDSLAVSLGERATISCRASESVDNYGISFLNWFQQKPGQPPKLLIYAASNQGSGVPSRFSGSGSGTDFTLNIHPLEAEDAATYYCQQSKEVPRTFGGGTKVEIK
In the case of B1, the Kd is 0.639 nM.

B2: 13A1_2B Fab (LCR13A1_VH_GLv1_03_LCR13A1_VK_GLv3, stable Fab) (Fab, V domains shown)
VH: QVQLVQSGSVLAKPGASVKVSCKASGYTFTNYWMHWVRQAPGQGLEWIGTIYPGNSDTNYNQKFKDRAKLTAVTSTSTVYMELSSLRSEDTAVYYCTREDSRSLYYNGWDYFDYWGQGTLVTVSS
VL: DIVMTQSPDSLAVSLGERATINCKSSESVDNYGISFLNWFQQKPGKAPKLLIYAASNQGSGVPDRFSGSGSGTDFTLTISSLQAEDVAVYFCQQSKEVPRTFGGGTKLEIK
As for B2, the Kd was found to be 0.615 nM.
